Assay results as given in a protein production outcome set (Wang et al. 2014).

Test: label from the status in PepcDB records
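Note: failed if final PepcDB status was selected cloned or expressed and not failed if soluble or beyond.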

| Sequence | protein production |
| --- | --- |
| HFNVLADTPSGLVPLHLRSPQVPAAQQMLNFPEKNKEKPVDLQNFGLRTDIYSKKTLAKSKGASAGREWTEQETLLLLEALEMYKDDWNKVSEHVGSRTQDECILHFLRLPIEDPYLENSDASLGPLAYQPVPFSQSGNPVMSTVAFLASVVDPRVASAAAKAALEEFSRVREEVPLELVEAHVKKVQEAARASGKVDPTYGLESSCIAGTGPDEPEKLEGAEEEKMEADPDGQQPEKAENKVENETDEGDKAQDGENEKNSEKEQDSEVSEDTKSEEKETEENKELTDTCKERESDTGKKKVEHEISEGNVATAAAAALASAATKAKHLAAVEERKIKSLVALLVETQMKKLEIKLRHFEELETIMDREKEALEQQRQQLLTERQNFHMEQLKYAELRARQQMEQQQHGQNPQQAHQHSGGPGLAPLGAAGHPGMMPHQQPPPYPLMHHQMPPPHPPQPGQIPGPGSMMPGQHMPGRMIPTVAANIHPSGSGPTPPGMPPMPGNILGPRVPLTAPNGMYPPPPQQQPPPPPPADGVPPPPAPGPPASAAP | not failed |
| MVSNQRVRLFMLCFCLVNNAVIAATEDENVERKPYIVYMGEATENSLVEAAENHHNLLMTVIGDESKARELKIYSYGKNINGFVARLFPHEAEKLSREEGVVSVFKNTQRQLHTTRSWDFLGLVESKYKRSVGIESNIIVGVLDTGIDVESPSFNDKGVGPPPAKWKGKCVTGNNFTRCNNKVIGAKYFHIQSEGLPDGEGDTAADHDGHGTHTSSTIAGVSVSSASLFGIANGTARGGVPSARIAAYKVCWDSGCTDMDMLAAFDEAISDGVDIISISIGGASLPFFEDPIAIGAFHAMKRGILTTCSAGNNGPGLFTVSNLAPWVMTVAANSLDRKFETVVKLGNGLTASGISLNGFNPRKKMYPLTSGSLASNLSAGGYGEPSTCEPGTLGEDKVMGKVVYCEAGREEGGNGGQGQDHVVRSLKGAGVIVQLLEPTDMATSTLIAGSYVFFEDGTKITEYINSTKNPQAVIFKTKTTKMLAPSISSFSARGPQRISPNILKPDISAPGLNILAAYSKLASVTGYPDDNRRTLFSIMSGTSMACPHAAAAAAYVKSFHPDWSPAAIKSALMTTATPMRIKGNEAELSYGSGQINPRRAIHPGLVYDITEDAYLRFLCKEGYNSTSIGLLTGDNSNNTTKKEYNCENIKRGLGSDGLNYPSLHKQVNSTEAKVSEVFYRTVTNVGYGPSTYVARVWAPKGLRVEVVPKVMSFERPKEKRNFKVVIDGVWDETMKGIVSASVEWDDSRGHLVRSPILLFRSDNDYR | failed |
| MDYKLIITLFTFCVAAFSGMKAAEAASFSVVADGLNNARGLSFGLDGALYVTEAGTGGNGACIPSVTGQGGSLCYGTSSTVLKIENGVTSPVLTGLPSIALADGTGAGGARDIQFDTTGKPYILMGYGANPTFRNNLGNIDLGKIIAPDFQTNSWTSIADLANYELVNNPDGGDINSNPLGFFIDGNNLIAVDAGANNLLSVQTNGTNLQTLSVFPQEILTNPVFPPSGTPSTEPGQVPTPTAPPPPQLPIQVVPSSVVRGPDGAYYVSQFTGFPFPEGGAKIYRVGTDGETTIYADGFTQLTDLEFDSAGNLYALQYANQSAWKGNFDGSLIKIAADGTRTTILSGNGLESPNALAIAPNGEIYITNRSDRPGLGQIIRVENSQAVPEPNSAFSVFLLGAFGVAWLRKSTSRVCLNQKP | failed |
| MSLKIYGVYRSRASRPLWLLAELDLPFEHVPVIQANRVAHPHGPEAPLNTASAAYLAVNPLGQIPCLEEEGLILTESLAITLHIARTQGGQLGPRSEPEDALMVSWSLFAATAVEPPALEIQLIQRSGGGTSPEGQAAIAIAAERLRRPLARLERHFAAEDYLVGGRFTVADLNLAETLRYGQAHPALLEPFPAVAAWLDRCQSRPAFRLMMERRAAEGHHHHHH | not failed |
| MSANMHIFENPSALAEALADDVGARLAAAIAARGTASLAVSGGSTPKAFFRSLSRRELDWSKVTVTLVDERFVPPENDRSNHRLVADNLLKDGAAEARFVPLYQAAETAEAAAAIASGRTASLGAPLDVVVLGMGTDGHTASFFPGGTRLEEALDPTTPRGVITMEAEGAGEPRLTFTFSSLQDAGYLVLHIEGSGKKEVLAQAEASGDEAEMPIRAMLRRAASPLQIYWAP | failed |
| SHPCFVQGRPELLSQIKRKQSARTVEDKQVNEQTQQNLEVVMAEMRAMREKAKNMEDKMNKLTKENRDMWTQMGSMRQQHARQQQYFKKLLHFLVSVMQPGLSKRVAKRGVLEIDFCAANGTAGPNSKRARMNSEEGPYKDVCDLLESLQRETQEPFSRRFTNNEGPLISEVTDEFGNSPVGRGSAQDLFGDTFGAQSSRYSDGGATSSREQSPHPIISQPQSNSAGAHGANEQKPDDMYMGSGPLTHENIHRGISALKRDYQGASPASGGPSTSSSAPSGAGAGARMAQKRAAPYKNATRQMAQPQQDYSGGFVNNYSGFMPSDPSMIPYQPSHQYLQPHQKLMAIEDQHHPTTSTSSTNADPHQNLYSPTLGLSPSFDRQLSQELQEYFTGTDTSLESFRDLVSNHNWDDFGNNVPLDDDEEGSEDPLRQLALENAPETSNYDGAEDLLFDNEQQYPENGFDVPDPNYLPLADEEIFPHSPALRTPSPSDPNLV | not failed |
| MAMNEIALFKGVRIQPYQKYIDFMFASVLAFIFLVYRIYILFIDYKSVNKKLDILTLFAYFKPHLLYLLIGTAIIFVICKLIAQFLIRFKTKDLAEMIETQGFHNRTVIKKTTEYIPIDYKQTEYDYYPTMFYKRGKKSFVIHIKKDGSRFQDNYLELETIIEPMFNSELVEKKHIGRYLRYEFMPLKYKKRIVMNGEQESNTIFYDTKIAITHQITWDFVKAPHGLVTGITGGGKTYFLFYVIRELFRRHSEVRLLDPKVSDLSFMKRVIGDDKVADTKGQILKQLREANNEMEERFRLMNDSSDYKIGNDFRNFDMRPYFIIFDEVTAFTSTLDKKELQEMNDYLINIIMKGRQAGVFMFLTAQRPDADVIKGNVRDQLGLRVSLGNLSNDGYRMTFGQTDKEFQTIHDSDIGRGYISILGQYNEPILFDAPLMEQYDFVEDVKQILNKE | failed |
| MAIERIQLHTHGDDRGLLISLEQQRNVPFEIRRVYYLFGTRHDVHRGQHAHRQLNQFAVALHGSVTILLDEGNGNGPSEVVLDDPSQGLLLGRMVWRDLYRFSADCVLMVLADQPYDPGDYILDYDQFVSEVRNGTALQARRLEA | failed |
| MKQPTAVIFDWYNTLIDTSINIDRTTFYQVLDQMGYKNIDLDSIPNSTIPKYLITLLGKRWKEATILYENSLEKSQKSDNFMLNDGAIELLDTLKENNITMAIVSNKNGERLRSEIHHKNLTHYFDSIIGSGDTGTIKPSPEPVLAALTNINIEPSKEVFFIGDSISDIQSAIEAGCLPIKYGSTNIIKDILSFKNFYDIRNFICQLINI | not failed |
| MVIGVTGKIGTGKSTVCEILKNKYGAHVVNVDRIGHEVLEEVKEKLVELFGGSVLEDGKVNRKKLAGIVFESRENLKKLELLVHPLMKKRVQEIINKTSGLIVIEAALLKRMGLDQLCDHVITVVASRETILKRNREADRRLKFQEDIVPQGIVVANNSTLEDLEKKVEEVMKLVWEKRE | not failed |
| MKKWRFLGIDDSFDDRKCCVVGCVTCGGYVEGFLYTEIDIDGLDATDKLISMVRRSKFREQIKCIFLPGITLGGFNLVDIQRVYRETKIPVVVVMRRKPDMEEFDSAMRNLENYELRRKIVEVAGEIHRIGDIYIQTAGLTPSEAEKLVKASLIKGNMPEPVRISHLVASAIIHGESRGKA | not failed |
| MAFSDDLPPPPRVNDHVKTRRNRKRRTIKTKQLEELISTATRAAHVARDKGFYIVSPEAIQCVEILRHMRTLPLNARLITKTDGLRVLLFLSKNGNPKIRSESKAVIDHWKSILHTKVH | failed |
| MPDITISWVAAILGLVVAIVLILKKFNPVYSLFFGAIVGCLIGGASLSDTVAVLLNGTQSIMGTAIRVLAAGMLAGVMMESGAAESIANAIVQKLGEKKAILSLALSTMVITAVGVFIPVAVLIVAPIALSVGKSTGISKLSLLIALSGGGKAGNIISPNPNTIAAANGFDLPLSDVMIAGFIPAVFGLITAVVLANIMRNKGSMVKETDLVEEQTKELLPLKKALIAPVLAIVLLLLNPIGAVLNISFIKSLNIDALYILPFASVVGTIAIGQTKQLAFYASSGLKRVTDTVLILIGAGAIAGLISVSDLSTQIVHLISVMGISGTFLAPISGILMGLAVGSTSTAVILATGSFGPAILDMGTSSLSAAVMVHTGATVIDSVPQGNYFHITAQSMNMTIKERIRVIPYEMCVGGVMTIVATILYGFILN | failed |
